The target in assay [1] is T1, FcgRIIb extracellular domain with C-terminal His tag (human, UniProt P31994 43-217).
T1 construct: extracellular domain; also called FcγRIIb; not shown: His tag attached to the C terminus
T1 sequence (looked up): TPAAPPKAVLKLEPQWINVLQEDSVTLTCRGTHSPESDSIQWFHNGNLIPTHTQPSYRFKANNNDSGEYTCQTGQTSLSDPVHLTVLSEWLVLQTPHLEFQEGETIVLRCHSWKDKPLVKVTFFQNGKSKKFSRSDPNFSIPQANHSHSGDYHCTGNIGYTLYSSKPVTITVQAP
Briefly: SPR (Biacore T100), antibody captured on antigen peptide chip, FcγR extracellular domain as analyte, kinetic analysis. The protocol:
(§1) The prepared antibodies were assayed as to the KDs for FcγRIIIa and FcγRIIb according to the method described in Reference Example 2.
(§2) Analysis of interaction between objective antibody and the FcγR was carried out using Biacore T100 (GE Healthcare). HBS-EP+ (GE Healthcare) was used as the running buffer, and the measurement temperature was set to 25° C. Chips produced by immobilizing the antigen peptide by the amine coupling method to a Series S Sencor Chip CM5 (GE Healthcare), or alternatively, chips produced by allowing preliminarily biotinylated antigen peptides to interact with and immobilize onto a Series S Sensor Chip SA (certified) (GE Healthcare) were used. Antibodies of interest were captured onto an antigen peptide-immobilized chip, and allowed to interact to each FcγR diluted with running buffer. To regenerate and repeatedly use the chip, the antibodies captured on the chip were washed off by reacting 10 mM glycine-HCl, pH 1.5.
(§3) The FcγR-binding activity of each antibody was assessed primarily using as an indicator the FcγR-binding activity and dissociation constant for FcγR.
(In general: SPR reads the build-up and loss of mass on a sensor chip optically.)

Assay [2] deals with T2, FcgRIIIa F extracellular domain with C-terminal His tag (human, UniProt P08637 17-208).
T2 construct: extracellular domain; also called FcγRIIIa F; FcγRIIIa (F158); not shown: His tag attached to the C terminus
The description is as above. The protocol:
as §1, §2, §3

The target of assay [3] is T2, FcgRIIIa F extracellular domain with …. In words: ratio of SPR (Biacore) KDs, FcγRIIb as reference. The protocol:
as §1, §2, §3

In assay [4] the target is T1, FcgRIIb extracellular domain with …. Briefly: SPR (Biacore) KD ratio against the template H240-Kn061/H240-Hl071/L73-k0. The protocol: (§4) The antibodies were assessed for the binding to each FcgR. […] The resultant value was defined as relative KD, and used as an assessment indicator.
(§5) Analysis of interaction between obj ective antibody and the FcγR was carried out using Biacore T100 (GE Healthcare), Biacore T200, Biacore A100, and Biacore 4000. HBS-EP+ (GE Healthcare) was used as the running buffer, and the measurement temperature was set to 25° C. Chips produced by immobilizing the antigen peptide by the amine coupling method to a Series S sensor Chip CM5 (GE Healthcare), chips produced by allowing preliminarily biotinylated antigen peptides to interact with and immobilize onto a Series S Sensor Chip SA (certified) (GE Healthcare), chips produced by immobilizing Protein L (ACTIGEN, BioVision) to Series S Sencor Chip CM5 (GE Healthcare), or chips produced by immobilizing Protein A/G (Thermo Scientific) to Series S Sencor Chip CM5 (GE Healthcare) were used. Antibodies of interest were captured onto these chips, and allowed to interact to each FcγR diluted with running buffer.

Assay [5] concerns the target T3, FcgRIIa R extracellular domain with C-terminal His tag (human, UniProt P12318 34-217).
T3 construct: extracellular domain; also called FcγRIIa R; FcγRIIa type R; not shown: His tag attached to the C terminus
T3 sequence (looked up): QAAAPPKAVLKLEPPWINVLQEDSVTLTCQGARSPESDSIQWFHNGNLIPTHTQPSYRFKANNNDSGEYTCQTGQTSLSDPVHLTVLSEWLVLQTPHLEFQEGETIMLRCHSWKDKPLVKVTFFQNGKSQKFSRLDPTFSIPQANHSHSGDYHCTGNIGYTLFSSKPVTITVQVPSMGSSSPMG
The assay is described as above. The method, then: as §4, §5

The target of assay [6] is T4, FcgRIIIa V extracellular domain with C-terminal His tag (human, UniProt P08637 17-208).
T4 construct: extracellular domain; also called FcγRIIIa V; FcγRIIIa (V158); not shown: His tag attached to the C terminus
Described as above. The protocol: as §4, §5

For assay [7], the target named is T2, FcgRIIIa F extracellular domain with …. The assay is described as above. The protocol: as §4, §5
For assay [8], the target named is T5, FcgRIIa H extracellular domain with C-terminal His tag (human, UniProt P12318 34-217).
T5 construct: extracellular domain; also called FcγRIIa H; FcγRIIa type H; not shown: His tag attached to the C terminus
T5 sequence (looked up): T3 sequence (looked up) with R134H
The assay is described as above. The method, then: as §4, §5

Positions count from the first letter of the chain named. Names and notes keep the numbering of the source.

T2 sequence (P08637 17-208): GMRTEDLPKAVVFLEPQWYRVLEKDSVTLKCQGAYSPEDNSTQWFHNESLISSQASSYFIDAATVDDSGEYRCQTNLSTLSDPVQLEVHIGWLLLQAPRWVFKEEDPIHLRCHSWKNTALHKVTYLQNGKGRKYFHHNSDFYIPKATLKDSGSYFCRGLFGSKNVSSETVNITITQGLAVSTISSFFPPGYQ
T4 sequence (P08637 17-208 F176V): as the sequence (P08637 17-208) above, with F160V counted along it

B1: GpH7-G1d/GpL16-k0 (antibody, human IgG1, kappa)
heavy: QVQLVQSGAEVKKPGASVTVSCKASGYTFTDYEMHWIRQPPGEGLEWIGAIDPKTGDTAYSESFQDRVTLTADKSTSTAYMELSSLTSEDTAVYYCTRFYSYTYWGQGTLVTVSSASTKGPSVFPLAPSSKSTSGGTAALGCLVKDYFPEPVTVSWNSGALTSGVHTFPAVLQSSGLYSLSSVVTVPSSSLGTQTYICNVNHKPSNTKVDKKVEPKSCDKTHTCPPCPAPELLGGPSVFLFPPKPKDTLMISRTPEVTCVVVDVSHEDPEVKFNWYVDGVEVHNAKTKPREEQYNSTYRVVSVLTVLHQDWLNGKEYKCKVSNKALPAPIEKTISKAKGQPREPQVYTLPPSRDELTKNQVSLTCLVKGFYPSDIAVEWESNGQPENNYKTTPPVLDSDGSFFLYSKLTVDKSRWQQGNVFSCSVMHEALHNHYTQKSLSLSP
light: DIVMTQSPLSLPVTPGEPASISCQASESLVHSNRNTYLHWYLQKPGQSPQLLIYKVSNRFSGVPDRFSGSGSGTDFTLKISRVEAEDVGVYYCSQNTHVPPTFGQGTKVEIERTVAAPSVFIFPPSDEQLKSGTASVVCLLNNFYPREAKVQWKVDNALQSGNSQESVTEQDSKDSTYSLSSTLTLSKADYEKHKVYACEVTHQGLSSPVTKSFNRGEC
notes: Anti-glypican-3 IgG1 lacking the C-terminal Gly and Lys; also called native IgG1
A word on the Kd: it is the constant that tells how readily two partners part at equilibrium. Read a high Kd as lower affinity. Consider B1, for which the results for the dissociation constant Kd in assay [1] and in assay [2] were 3.1 µM and 1.2 µM, respectively. Moreover, the “FcγRIIIa F/FcγRIIb ratio (KD for FcγRIIb / KD for FcγRIIIa F)” value in assay [3] was found to be 2.5.

B2: GpH7-A5/GpH7-B3/GpL16-k0 (antibody, human IgG1, kappa)
heavy 1: not shown
heavy 2: not shown
light: B1 light
notes: also called A5/B3; HeCon Ab
As for B2, the Kd in assay [1] was 3.1 µM; in assay [2], 1.6 µM. The “FcγRIIIa F/FcγRIIb ratio (KD for FcγRIIb / KD for FcγRIIIa F)” value in assay [3] is 1.9.

B3: GpH7-TA7/GpH7-B78/GpL16-k0 (antibody, human IgG1, kappa)
heavy 1: QVQLVQSGAEVKKPGASVTVSCKASGYTFTDYEMHWIRQPPGEGLEWIGAIDPKTGDTAYSESFQDRVTLTADKSTSTAYMELSSLTSEDTAVYYCTRFYSYTYWGQGTLVTVSSASTKGPSVFPLAPSSKSTSGGTAALGCLVKDYFPEPVTVSWNSGALTSGVHTFPAVLQSSGLYSLSSVVTVPSSSLGTQTYICNVNHKPSNTKVDKKVEPKSCDKTHTCPPCPAPEYLWGPSVFLFPPKPKDTLMISRTPEVTCVVVDVSHEDPEVKFNWYVDGVEVHNAKTKPREEQYNATYRVVSVLTVLHQDWLNGKEYKCKVSNKALPAPIEKTISKAKGQPREPQVYTLPPSRKELTKNQVSLTCLVKGFYPSDIAVEWESNGQPENNYKTTPPVLDSDGSFFLYSKLTVDKSRWQQGNVFSCSVMHEALHNRYTQKSLSLSP
heavy 2: B3 heavy 1 with Y232L, W234G, S237D, A296S, A328L, I330E, K354D, R433H, K437E
light: B1 light
notes: L234Y/G236W/S298A in one H chain, S239D/A330L/I332E in the other; also called TA7/B78
In the case of B3, the Kd in assay [1] was 1.1 µM; in assay [2] it was 0.0047 µM. Further, in assay [3], the “FcγRIIIa F/FcγRIIb ratio (KD for FcγRIIb / KD for FcγRIIIa F)” value came to 244.

B4: GpH7-A5/GpH7-B78/GpL16-k0 (antibody, human IgG1, kappa)
heavy 1: not shown
heavy 2: B3 heavy 1 with Y232L, W234G, S237D, A296S, A328L, I330E, K354D, R433H, K437E
light: B1 light
notes: S239D/A330L/I332E in one H chain only; also called A5/B78
As for B4, the results for the Kd in assay [1] and in assay [2] were 0.43 µM and 0.054 µM, respectively. Besides, the “FcγRIIIa F/FcγRIIb ratio (KD for FcγRIIb / KD for FcγRIIIa F)” value in assay [3] was 7.9.

B5: GpH7-TA7/GpH7-B3/GpL16-k0 (antibody, human IgG1, kappa)
heavy 1: B3 heavy 1
heavy 2: not shown
light: B1 light
notes: L234Y/G236W/S298A in one H chain only; also called TA7/B3
For the molecule B5, the results for the Kd in assay [1] and in assay [2] were 4.5 µM and 0.32 µM, respectively. Further, the “FcγRIIIa F/FcγRIIb ratio (KD for FcγRIIb / KD for FcγRIIIa F)” value in assay [3] was 14.

B6: GpH7-A57/GpH7-B78/GpL16-k0 (antibody, human IgG1, kappa)
heavy 1: B3 heavy 1 with Y232L, W234G, S237D, A296S, A328L, I330E
heavy 2: B3 heavy 1 with Y232L, W234G, S237D, A296S, A328L, I330E, K354D, R433H, K437E
light: B1 light
notes: S239D/A330L/I332E in both H chains (called homodimerized); also called A57/B78
With B6, the results for the Kd in assay [1] and in assay [2] were 0.61 µM and 0.0062 µM, respectively. In addition, in assay [3], the “FcγRIIIa F/FcγRIIb ratio (KD for FcγRIIb / KD for FcγRIIIa F)” value is 100.

B7: GpH7-TA7/GpH7-TA45/GpL16-k0 (antibody, human IgG1, kappa)
heavy 1: B3 heavy 1
heavy 2: B3 heavy 1 with K354D, R433H, K437E
light: B1 light
notes: L234Y/G236W/S298A in both H chains (called homodimerized); also called TA7/TA45
B7: the equilibrium dissociation constant (Kd) came out at 18 µM in assay [1] and 3.3 µM in assay [2]. In assay [3], the “FcγRIIIa F/FcγRIIb ratio (KD for FcγRIIb / KD for FcγRIIIa F)” value was found to be 5.3.

B8: H240-Kn061/H240-Hl071/L73-k0 variant with F241L introduced into H240-Hl071 (antibody, human IgG1, kappa)
heavy 1: QDQLVQSGAEVKKPGASVKVSCKASGFNIKDTYIQWVRQAPGQGLEWMGRIDPLRKQTKYREKFEGRVTITADTSTNTAYMELSSLRSEDTAVYYCVRSGREFDYWGQGTLVTVSSASTKGPSVFPLAPSSKSTSGGTAALGCLVKDYFPEPVTVSWNSGALTSGVHTFPAVLQSSGLYSLSSVVTVPSSSLGTQTYICNVNHKPSNTKVDKKVEPKSCDKTHTCPPCPAPEYYWGPSVFLFPPKPKDTLMISRTPEVTCVVVDVSDEDPEVKFNWYVDGVEVHNAKTKPREEQYNATYRVVSVLTVLHQDWLNGKEYKCKVSNKALPAPIEKTISKAKGQPREPQVCTLPPSRDELTKNQVSLWCLVKGFYPSDIAVEWESNGQPENNYKTTPPVLDSDGSFFLYSKLTVDKSRWQQGNVFSCSVMHEALHNHYTQKSLSLSP
heavy 2: QDQLVQSGAEVKKPGASVKVSCKASGFNIKDTYIQWVRQAPGQGLEWMGRIDPLRKQTKYREKFEGRVTITADTSTNTAYMELSSLRSEDTAVYYCVRSGREFDYWGQGTLVTVSSASTKGPSVFPLAPSSKSTSGGTAALGCLVKDYFPEPVTVSWNSGALTSGVHTFPAVLQSSGLYSLSSVVTVPSSSLGTQTYICNVNHKPSNTKVDKKVEPKSCDKTHTCPPCPAPELLGGPSVLLFPPKPKDTLMISRTPEVTCVVVDVSHEDPEVKFNWYVDGVEVHNAKTKPREEQYNSTYRVVSVLTVLHQDWLNGKEYKCKVSNDALPMPIEETISKAKGQPREPQVYTLPPSRCELTKNQVSLSCAVKGFYPSDIAVEWESNGQPENNYKTTPPVLDSDGSFFLVSKLTVDKSRWQQGNVFSCSVMHEALHNHYTQKSLSLSP
light: DIQMTQSPSSLSASVGDRVTITCRASQDIHKYIAWYQQKPGQAPRLLIQYTSTLQPGVPSRFSGSGSGTDYTFTISSLQPEDIATYYCLQYEQLRTFGGGTKVEIKRTVAAPSVFIFPPSDEQLKSGTASVVCLLNNFYPREAKVQWKVDNALQSGNSQESVTEQDSKDSTYSLSSTLTLSKADYEKHKVYACEVTHQGLSSPVTKSFNRGEC
notes: Point variant made with H240-Kn061/H240-Hl071/L73-k0 as template; position by EU numbering; also called H240-Hl071 F241L
For B8, the “relative KD (KD of H240-Kn061/H240-Hl071/L73-k0 / KD of variant)” value in assay [4] worked out at 0.8; in assay [5] it was 1.2; in assay [6] it was 1.3; in assay [7], 1.3; in assay [8], 1.2.

B9: H240-Kn061/H240-Hl071/L73-k0 variant with F241M introduced into H240-Hl071 (antibody, human IgG1, kappa)
heavy 1: B8 heavy 1
heavy 2: B8 heavy 2 with L240M
light: B8 light
notes: Point variant made with H240-Kn061/H240-Hl071/L73-k0 as template; position by EU numbering; also called H240-Hl071 F241M
Turning to B9, the “relative KD (KD of H240-Kn061/H240-Hl071/L73-k0 / KD of variant)” value in assay [4] was found to be 0.9; in assay [5] it was 1.3; in assay [6], 1.3; in assay [7], 1.3; in assay [8], 1.1.

B10: H240-Kn061/H240-Hl071/L73-k0 variant with L235F introduced into H240-Hl071 (antibody, human IgG1, kappa)
heavy 1: B8 heavy 1
heavy 2: B8 heavy 2 with L234F, L240F
light: B8 light
notes: Point variant made with H240-Kn061/H240-Hl071/L73-k0 as template; position by EU numbering; also called H240-Hl071 L235F
For the molecule B10, the “relative KD (KD of H240-Kn061/H240-Hl071/L73-k0 / KD of variant)” value in assay [4] turned out to be 1; in assay [5] it was 1.2; in assay [6], 1.6; in assay [7], 1.9; in assay [8], 1.1.
